Measurements reported in article PMC12531337 (Nature Communications, 2023).
Where a chain is given by its changes, count along the chain named. Names may count otherwise. “And” between values parts separate entries of the source, which are not always exact repeats. Identical values can stand only once.

T1: mCherry fusion FUS LC domain (UniProt P35637 2-214)
T1 sequence (looked up): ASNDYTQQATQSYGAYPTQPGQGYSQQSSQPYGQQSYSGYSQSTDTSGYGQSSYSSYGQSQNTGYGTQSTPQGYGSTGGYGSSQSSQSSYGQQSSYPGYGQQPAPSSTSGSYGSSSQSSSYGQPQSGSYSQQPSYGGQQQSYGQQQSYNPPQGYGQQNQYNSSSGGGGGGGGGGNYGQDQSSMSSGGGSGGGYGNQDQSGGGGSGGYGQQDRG

B1: mCherry fusion hnRNPA2 LC domain F291S mutant (domain or fragment, UniProt P22626-2 181-341, looked up)
chain: MQEVQSSRSGRGGNFGFGDSRGGGGNFGPGPGSNFRGGSDGYGSGRGFGDGYNGYGGGPGGGNFGGSPGYGGGRGGYGGGGPGYGNQGGGYGGGYDNYGGGNYGSGNYNDSGNYNQQPSNYGPMKSGNFGGSRNMGGPYGGGNYGPGGSGGSGGYGGRSRY
B2: GFP:ZNF512B ZnF3-5 (domain or fragment, UniProt Q96KM6 540-653, looked up)
chain: LKCQHCRKQFKSKAGLNYHTMAEHSAKPSDAEASEGGEQEERERLRKVLKQMGRLRCPQEGCGAAFSSLMGYQYHQRRCGKPPCEVDSPSFPCTHCGKTYRSKAGHDYHVRSEH
B3: GFP:ZEB2-ZnF5 (domain or fragment, UniProt O60315 581-605, looked up)
chain: FSCQFCKESFPGPIPLHQHERYLCK
B4: GFP:ZEB2-ZnF6-7 (domain or fragment, UniProt O60315 999-1049, looked up)
chain: YACDLCDKTFQKSSSLLRHKYEHTGKRPHQCQICKKAFKHKHHLIEHSRLH
B5: GFP:ZEB2-ZnF6 (domain or fragment, UniProt O60315 999-1021, looked up)
chain: YACDLCDKTFQKSSSLLRHKYEH
B6: GFP:ZEB2-ZnF1-4 (domain or fragment, UniProt O60315 211-334, looked up)
chain: LTCPYCDRGYKRLTSLKEHIKYRHEKNEENFSCPLCSYTFAYRTQLERHMVTHKPGTDQHQMLTQGAGNRKFKCTECGKAFKYKHHLKEHLRIHSGEKPYECPNCKKRFSHSGSYSSHISSKKC
B7: GFP:ZEB2-ZnF7-8 (domain or fragment, UniProt O60315 1027-1076, looked up)
chain: HQCQICKKAFKHKHHLIEHSRLHSGEKPYQCDKCGKRFSHSGSYSQHMNH
B8: GFP-fused ZnFs of KLF4 (domain or fragment)
chain: not shown
B9: GFP:ZEB2-ZnF8 (domain or fragment, UniProt O60315 1055-1076, looked up)
chain: YQCDKCGKRFSHSGSYSQHMNH
B10: GFP:ZEB2-ZnF7 (domain or fragment, UniProt O60315 1027-1049, looked up)
chain: HQCQICKKAFKHKHHLIEHSRLH
B11: GFP:ZEB1-ZnF5-7 (domain or fragment, UniProt P37275 904-981, looked up)
chain: YACDLCDKIFQKSSSLLRHKYEHTGKRPHECGICKKAFKHKHHLIEHMRLHSGEKPYQCDKCGKRFSHSGSYSQHMNH
B12: GFP fusion ZEB2 ZnF6-8 (domain or fragment, UniProt O60315 999-1076, looked up)
chain: B11 chain with I9T, E30Q, G32Q, M48S

Target: the molecule itself
Assay: AUC

Row | Binder | stoichiometry N
1 | B1 | 2 and 3

These binders were tested against mCherry fusion hnRNPA2 LC domain (UniProt P22626-2 181-341) (assay: hydrogel binding assay).

Row | binding result | Binder
2 | binds | B2
3 | binds | B3
4 | binds | B4
5 | binds | B5
6 | binds | B6
7 | binds | B7
8 | binds | B8
9 | binds | B9
10 | binds | B10
11 | binds | B11
12 | binds | B12

The binders below were run against mCherry fusion TDP43 LC domain (UniProt Q13148 262-414) (assay: hydrogel binding assay).
Chain of mCherry fusion TDP43 LC domain (Q13148 262-414): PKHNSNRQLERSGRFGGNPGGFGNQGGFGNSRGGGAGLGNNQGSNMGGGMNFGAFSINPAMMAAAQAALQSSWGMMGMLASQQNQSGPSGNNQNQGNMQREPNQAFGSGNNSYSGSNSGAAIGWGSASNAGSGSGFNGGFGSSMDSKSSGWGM

Row | binding result | Binder
13 | binds | B12

These binders were tested against T1, mCherry fusion FUS LC domain (assay: hydrogel binding assay).

Row | binding result | Binder
14 | binds | B12
